System: ApCREB-1 (Aplysia californica)
Test: cell_activity
Settings: F9 cells with PKA; 2.13 without PKA; 1.64 with ApCREB-2 plus PKA

TGACGTCA (double strand) [single CRE palindrome in pGL3-CRE reporter]
activity (fold activation): 10.5
